Results from paper PMC12197737.
Where “and” joins values, the source holds several entries; their conditions need not be identical. Identical values can stand only once.

Target: recombinant TSWV-N protein (tomato spotted wilt virus nucleocapsid N protein) (Tomato spotted wilt virus (TSWV))
Assay: cross-linking

Q: With “recombinant TSWV-N protein (tomato spotted wilt virus nucleocapsid N protein) (natural protein)” as the substance, how does the stoichiometry N read?
A: The stoichiometry N was 2 and 3.
